In patent publication US20240034790A1 (INNOBATION BIO, published 2024):
Where a chain is given by its changes, count along the chain named.

B1: 7C7 antibody (antibody, V domains shown)
VH: EVQLQQSGPELVKPGASVRMSCKASGYTFTSYVMHWVKQKPGQGLEWIGYINPYNDGTKYNEKFKGKSTLTSDKSSSTAYMELSSLTSEDSAVYCCARGRNRYDSWFAYWGQGTLVTVSA
VL: DIQMTQTTSSLSASLGDRVTISCRASQDISNYLNWYQQKPDGTVKLLIYYTSRLHSGVPSRFSGSGSGTDYSLTISNLEQEDIATYFCQQGNTLPWTFGGGTKLEIK
notes: Monoclonal antibody from a hybridoma (mouse myeloma fusion), detected with anti-mouse IgG; In the ELISA hybridoma culture solution was used
B2: 5A4 antibody (antibody, V domains shown)
VH: QVQLQQPGPELVRPGASVKMSCKASGYTFTNYWIHWVKQRPGQGLEWIGMIDPSNSATRLNQKFKDKATLNVDKSSNTAYMQLSSLTSEDSAVYYCARGGFAFDSWGQGTTLTVSS
VL: DVLMTQTPLSLPVSLGDQASISCRSSQSLVHSNGNTYLHWYLQKPGQSPKLLIYKVSNRFSGVPDRFSGSGSGTDFTLKISRVEAEDLGVYFCSQSTHVPWTFGGGTKLEIK
notes: Hybridoma monoclonal antibody detected with anti-mouse IgG
B3: 4E12 antibody (antibody, V domains shown)
VH: QIQFAQSGPELKKSGETVKISCRASGYTFTNYGMNWVKQAPGKGLKWMGWINTYTGEPTYADDFKGRFAFSLETSASTAYLQINNLKNEDMATYFCARGGGRGAMDYWGQGTTLTVSS
VL: B2 VL with L29I, H39D, N58K, F92Y, S94F, S96G, T97S, W101F, G105S
notes: as for B2
B4: 5H4 antibody (antibody, V domains shown)
VH: QVQLQQPGAELVKPGTSVKMSCKASGYTFTNYWMHWVKQRPGQVLEWIGVIDPSDSYTSYNQKFKGKATLTVDTSSTTAYMQLSSLTSEDSAVYYCTRGGKRAMDYWGQGTSVTVSS
VL: B2 VL with W101F, G105S
notes: as for B2
B5: 1E7 antibody (antibody, V domains shown)
VH: EVQLQQSGPELIKPGASVKMSCKASGYIFTSYVVYWVKQKPGQGLEWIGYINPYNDGTKYNEKFKGKATLTSYKSSSTAYMELSSLTSADSAVYYCARGGFTTDYWGQGTTLTVSS
VL: B2 VL with W101Y
notes: as for B2
B6: 3H3 antibody (antibody, V domains shown)
VH: B2 VH with Q1E, I34M, A57E, Y95S
VL: B2 VL with S32N, S68R
notes: as for B2
B7: 3A5 antibody (antibody, V domains shown)
VH: B4 VH with Q1E, T16A, N31S, V37M, K38N, V44G, T77S, T97A
VL: B2 VL with W101F, G105S
notes: as for B2

These molecules were tested against T1, CD47 on breast cancer cell line MCF-7 (UniProt Q08722 19-323, limits assumed) (assay: flow cytometry on MCF-7 cells, secondary antibody alone (background control)).
T1 construct: whole, on cells; Endogenous CD47 of MCF-7 cells; also called CD47-expressing tumor cells (MCF-7); CD47-expressing cells
T1 sequence (Q08722 19-323 limits assumed): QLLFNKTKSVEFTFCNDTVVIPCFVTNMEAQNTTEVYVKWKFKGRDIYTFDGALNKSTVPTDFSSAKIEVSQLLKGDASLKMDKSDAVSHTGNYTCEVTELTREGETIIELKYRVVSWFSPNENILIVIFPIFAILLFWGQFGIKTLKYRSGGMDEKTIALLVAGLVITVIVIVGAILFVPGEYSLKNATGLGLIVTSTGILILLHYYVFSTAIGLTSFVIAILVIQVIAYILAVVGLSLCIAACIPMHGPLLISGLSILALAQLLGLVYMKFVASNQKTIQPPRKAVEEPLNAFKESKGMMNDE
A Mean of 80 and a Median of 73.9 were found for “PE-conjugated goat anti-mouse IgG (Biolegend Inc., cat# 405307) (antibody)” in this work.

Each molecule was assayed against T1, CD47 on breast cancer cell line MCF-7 (assay: flow cytometry on MCF-7 cells, 1 ug antibody, PE anti-mouse IgG).
Method: First, 1×10⁷ of breast cancer cell line MCF-7 expressing CD47 and 1 μg of 7C7, 5H4, […], 3H3, 3A5, and 1E7 antibody were reacted for 30 minutes, respectively, and then stained on surface with a secondary antibody. After staining, it was measured by flow cytometry.
As a positive control, CD47 antibody (Biolegend PE anti-human CD47, cat# 323108, 5 μl) was used, and as a secondary antibody, PE-conjugated anti-mouse IgG antibody (PE-conjugated goat anti-mouse IgG; Biolegend Inc., cat# 405307, USA, 5 μl) was used.
A Mean of 6820 and a Median of 6110 were found for B1 in this work.
A Mean of 16000 and a Median of 14700 were found for B2 in this work.
A Mean of 6030 and a Median of 5380 were found for B3 in this work.
A Mean of 15500 and a Median of 14300 were found for B4 in this work.
A Mean of 16100 and a Median of 14900 were found for B5 in this work.
A Mean of 18000 and a Median of 16500 were found for B6 in this work.
A Mean of 15000 and a Median of 13900 were found for B7 in this work.

The molecules below were run against T2, CD47 protein (Acrobiosystems, cat#CD7-HA2E9) (UniProt Q08722 19-139) (assay: ELISA, CD47 protein coated 100 ng/well, 3 ul hybridoma culture solution, anti-mIgG-HRP).
T2 construct: Bought recombinant protein, used as immunogen and as ELISA coating (100 ng/well); also called CD47 peptide; CD47 antigen
T2 sequence (Q08722 19-139 limits assumed): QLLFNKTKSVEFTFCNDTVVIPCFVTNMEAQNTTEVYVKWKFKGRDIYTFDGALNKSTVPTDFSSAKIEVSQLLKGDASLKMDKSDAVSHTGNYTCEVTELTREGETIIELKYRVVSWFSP
Method: 3 μl of hybridoma cell culture solution of each clone for producing 7C7, 5H4, 5A4, 4E12, 3H3, 3A5, or 1E7 antibody was treated in each well, and then reacted at room temperature for 2 hours, and then washed 3 times with 1× PBST. Secondary antibody ([…], 1:10,000) was treated and reacted at room temperature for 30 minutes, washed 3 times with 1× PBST, and then treated with TMB for color development and reacted at room temperature for 5 minutes. Finally, the reaction was terminated by treatment with a stop solution of 1N H₂SO₄, and then the absorbance was measured at 450 nm.
An OD450 measurements of 1.98 OD450 was found for B1 in this work.
An OD450 measurements of 1.93 OD450 was found for B2 in this work.
An OD450 measurements of 2.15 OD450 was found for B3 in this work.
An OD450 measurements of 1.91 OD450 was found for B4 in this work.
An OD450 measurements of 2.14 OD450 was found for B5 in this work.
An OD450 measurements of 1.97 OD450 was found for B6 in this work.
An OD450 measurements of 2.01 OD450 was found for B7 in this work.
